According to the supplement of paper PMC9732359:
± gives the uncertainty stated by the source.

Assay: protein stability index of a GFP-peptide fusion (yeast GPS) (PSI 1-4); higher = more stable; sorted into four equal gates, so the index is relative within each strain
How it was run: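 For each peptide, the protein stability index sums the read frequency in every gate after multiplying it by the gate number. Read frequencies came from plasmids that were PCR-amplified from each gate and Illumina-sequenced, with reads assigned to strains by barcodes. The gates were four equal bins of GFP/Cherry fluorescence ratio applied to mid-log yeast in leucine-free medium carrying a pooled library of tiled 17-residue yeast protein peptides fused downstream of GFP on a Cherry-expressing plasmid.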

| Sequence | protein stability index (doa10∆) | protein stability index (pdr5∆) | protein stability index (san1∆) | protein stability index (ubr1∆) |
| --- | --- | --- | --- | --- |
| LFLNNFVSRIPIMFQDF [IRR1] | 1.97 ± 0.057 | 2.04 ± 0.048 | 1.7 ± 0.067 | 1.85 ± 0.033 |
| STLGDCLGIKDEEMLTS [GAL11] | 3.17 ± 0.18 | 3.11 ± 0.13 | 2.81 ± 0.062 | 3.04 ± 0.088 |
| METRINILLRERDSYKL [YIL149C/MLP2] | 1.96 ± 0.27 | 1.59 ± 0.11 | 1.2 ± 0.27 | 2.3 ± 0.15 |
| LSIQYMIQKVMEYLKSS [RPN5] | 1.38 ± 0.082 | 1.56 ± 0.082 | 1.59 ± 0.2 | 1.69 ± 0.11 |
| IQRTRERKKSIGSQRGR [DSN1] | 2.94 ± 0.077 | 2.5 ± 0.063 | 2.56 ± 0.061 | 2.91 ± 0.069 |
| LNTKSIQIDEETENSES [MCD1] | 2.16 ± 0.096 | 2.52 ± 0.11 | 2.87 ± 0.1 | 2.92 ± 0.1 |
| TLDVEAFKSVVSTETFE [RPL27A] | 2.4 ± 0.069 | 2.74 ± 0.051 | 2.59 ± 0.051 | 2.46 ± 0.053 |
| PTLAGMAQRTLKNKYES [FAS2] | 2.76 ± 0.031 | 2.67 ± 0.027 | 2.63 ± 0.029 | 2.657 ± 0.02 |
| IYNSTDSNSEILNFLNQ [YML103C/NUP188] | 3.1 ± 0.2 | 2.72 ± 0.067 | 2.71 ± 0.055 | 2.9 ± 0.076 |
| ETAERNIIQAKRDAKAA [RPL7A] |  | 2.06 ± 0.21 | 1.93 ± 0.16 |  |
| PSKKLKTEDGFVIPALP [RPC82] | 3.08 ± 0.13 | 3.19 ± 0.089 | 2.93 ± 0.083 | 3.08 ± 0.065 |
| QLWLNSSGDFDDNNNNN [GRR1] | 3.19 ± 0.076 | 3.16 ± 0.07 | 3.17 ± 0.1 | 3.06 ± 0.055 |
| ASVRIKDKFNQIPLHRA [NAS6] | 2.55 ± 0.095 | 2.68 ± 0.12 | 2.91 ± 0.14 | 3.17 ± 0.055 |
| SPFGGSSHAKGIVLEKL [RPS23A] | 3.19 ± 0.096 | 3.14 ± 0.074 | 3.12 ± 0.067 | 3.17 ± 0.063 |
| QLNGNETFSTSAHQSPI [SNF2] | 3.31 ± 0.11 | 2.99 ± 0.075 | 3.16 ± 0.072 | 3.22 ± 0.054 |
| ENEMIKPMNKGQHKNNT [SWP82] | 3.36 ± 0.081 | 3.19 ± 0.12 | 3.33 ± 0.09 | 3.26 ± 0.049 |
| KNDNIKKSVNKLDKQIN [POP6] | 2.78 ± 0.049 | 2.87 ± 0.059 | 2.73 ± 0.059 | 2.78 ± 0.046 |
| SNPSGNYTGWKAISVGA [PRE9] | 1.89 ± 0.073 | 2.5 ± 0.061 | 2.54 ± 0.086 | 2.22 ± 0.048 |
| AEKSYLYDSLASTPSIR [RRP42] | 2.57 ± 0.15 | 2.33 ± 0.1 | 2.46 ± 0.19 | 3.2 ± 0.11 |
| KRSDLTGANSIYSVEKK [UBP6] | 3.09 ± 0.12 | 2.8 ± 0.15 | 2.57 ± 0.15 | 3.16 ± 0.056 |

| Sequence | protein stability index (doa10∆) | protein stability index (pdr5∆) | protein stability index (san1∆) | protein stability index (ubr1∆) |
| --- | --- | --- | --- | --- |
| KRLSAALSKFLTHPKYL [YML103C/NUP188] | 2.48 ± 0.072 | 2.25 ± 0.066 | 2.84 ± 0.07 | 2.91 ± 0.065 |
| RTQPWSIMPDLYFYRDP [RPS0A] | 2.55 ± 0.051 | 2.85 ± 0.056 | 2.85 ± 0.043 | 2.6 ± 0.055 |
| WKATYSNEFKCMSVITA [YGL100W/SEH1] | 1.87 ± 0.056 | 1.64 ± 0.051 | 1.51 ± 0.073 | 2.07 ± 0.032 |
| KSEFDDLSLNIHPIPSV [YMR129W/POM152] | 2.64 ± 0.043 | 2.92 ± 0.039 | 2.75 ± 0.032 | 2.76 ± 0.032 |
| GNIQISEYNFLEGSVSL [DIS3] | 2.74 ± 0.097 | 3.08 ± 0.091 | 3.05 ± 0.09 | 2.89 ± 0.072 |
| RCTKIIKGNGESDETTT [RPT1] | 3.18 ± 0.14 |  | 3.36 ± 0.038 | 3.54 ± 0.11 |
| KEALQNNIFKEFTSKIG [SMC1] | 2.22 ± 0.064 | 2.3 ± 0.082 | 2.52 ± 0.11 | 2.24 ± 0.073 |
| DQDSAVVSSNIKKIVAD [QCR2] |  |  |  | 3.14 ± 0.14 |
| PKLKEGALHFVQQSEKL [YIL149C/MLP2] | 2.58 ± 0.064 | 2.33 ± 0.082 | 2.31 ± 0.066 | 2.88 ± 0.05 |
| ELDEHTTQIDLFRIFSM [BRR2] | 2.25 ± 0.1 | 1.56 ± 0.1 | 1.61 ± 0.15 | 1.22 ± 0.059 |
| RLNYLYQISAYQTRARQ [RPR2] | 1.56 ± 0.034 | 1.84 ± 0.037 | 1.85 ± 0.054 | 1.89 ± 0.035 |
| TNNVLRKLGLLGDKEDE [MTW1] | 2.27 ± 0.048 | 2.35 ± 0.054 | 1.85 ± 0.085 | 2.58 ± 0.049 |
| DEFYINVDKNLNEIKEH [RPN14] | 2.51 ± 0.072 | 2.5 ± 0.054 | 2.73 ± 0.062 | 2.92 ± 0.067 |
| RCWKANIPWDVPGMPAP [PRP8] | 2.15 ± 0.081 | 1.5 ± 0.077 | 1.28 ± 0.12 | 2.73 ± 0.18 |
| KKITLQLLDTSNQRFKD [SIN4] | 3.02 ± 0.059 | 3.18 ± 0.067 | 2.91 ± 0.048 | 2.88 ± 0.039 |
| GNPLSIGTLEEIIDDDH [RPT2] | 3.28 ± 0.1 | 3.43 ± 0.14 | 3.14 ± 0.076 | 3.24 ± 0.17 |
| ELKIRSKTENVRRLEAQ [RPT6] | 2.5 ± 0.16 | 2.53 ± 0.12 | 1.58 ± 0.27 | 2.53 ± 0.095 |
| QGLNILEWLENPSNTPD [FAS1] | 3.2 ± 0.12 | 3.06 ± 0.086 | 3.41 ± 0.051 | 3.14 ± 0.058 |
| CELQVETYGSMEMSEKI [RPN5] | 2.76 ± 0.096 | 2.96 ± 0.074 | 2.71 ± 0.071 | 2.84 ± 0.077 |
| AVKNKYNVGKQLSNEII [PRP28] | 2.08 ± 0.066 | 2.52 ± 0.074 | 2.17 ± 0.088 | 2.3 ± 0.069 |
